Measured values published in US20120028901A1.
Read-outs that look alike come from different tables or passages of the source.

Tests used:
Settings in all cases: modification not given
[1] = molecular target: T1, TFPI (human TFPI-1α) as coated or added in the ELISA, microarray and enzymatic assays (human), P10646; test: competition
[2] = molecular target: T1, TFPI (human TFPI-1α) as coated or added …
[3] = molecular target: T1, TFPI (human TFPI-1α) as coated or added …; remark: listed apart in the source
[4] = molecular target: T1, TFPI (human TFPI-1α) as coated or added …; remark: listed apart in the source

Binder	IC50 [1] [nM]	further results
FQSKKNVFVFGYFERLFAKL [JBT0581]	> 5000	
FQSKKNVFVFGYFERFRAKL [JBT0580]	> 5000	
FQSKKNVFVFGYFEFLRAKL [JBT0579]	> 5000	
FQSKKFVFVFGYFERLRAKL [JBT0574]	> 5000	
FQSKGNVFVTGYFARLRAKL [JBT0720]		EC50 [2]: 220 nM
FQSKKNVFDFGYFERLRAKL [JBT0592]	> 5000	
FQSKKNDFVFGYFERLRAKL [JBT0590]	> 5000	
FQSKKNVFVFGDFERLRAKL [JBT0594]	> 5000	
FQSKKNVFVFGYFERLRAFL [JBT0583]	> 5000	
FQSKKNVFVFGFFERLRAKL [JBT0577]	> 5000	
FQSKKNVFVFGYFERLRFKL [JBT0582]	> 5000	
FQSKKNVDVFGYFERLRAKL [JBT0591]	> 5000	
FQSDKNVFVFGYFERLRAKL [JBT0588]	> 5000	
FQFKKNVFVFGYFERLRAKL [JBT0571]	> 5000	
FQSKGNVFVAGYFARLRAKL [JBT0806]		EC50 [3]: 2420 nM; EC50 [4]: 130 nM

Continued, in another order:

IC50 [1] [nM]	Binder	further results
> 5000	FQSFKNVFVFGYFERLRAKL [JBT0572]	
1190	FESKGNVFVFGYFERLRAKL [JBT0516]	
> 5000	FFSKKNVFVFGYFERLRAKL [JBT0570]	
> 1670	FQSKKNVFVFFYFERLRAKL [JBT0576]	
100	AQSKGNVFVFGYFERLRAKL [JBT0497]	
> 1670	FDSKKNVFVFGYFERLRAKL [JBT0586]	
1370	FQSKFNVFVFGYFERLRAKL [JBT0573]	
40	FQSKNNVFVHGYFERLRAKL [JBT0487]	
